Target: recombinant XIAP, I. scapularis (as used in the native gel, the plate-coated ELISA and the ubiquitylation assay) (I. scapularis)
Assay: ELISA; 0.2 μg of XIAP coated on the plate (0.5 M carbonate-bicarbonate pH 9.5); increasing concentrations of Bendless, room temperature 1 hour; detected with α-UbcH13

concentration at saturation of binding: 9.1 µM
Substance: recombinant Bendless, I. scapularis (enzyme)

— paper PMC5316886
